Kd data for one molecule are collected here from article doi:10.1101/2022.05.05.490830.

Test in all cases: BLI
(BLI is a label-free optical method that tracks binding on a fibre tip over time.)

Data set [1] addresses T1, hPolεCD (E. coli) (Homo sapiens, UniProt Q07864 28-1194).
The target of data set [2] is T1, hPolεCD (E. coli). This is another data set of the same source.
A further data set concerns the target hPolεCD (insect) (Homo sapiens, UniProt Q07864 28-1194).

Where two headings read alike, the source gives them in different places.

T1 sequence (Q07864 28-1194): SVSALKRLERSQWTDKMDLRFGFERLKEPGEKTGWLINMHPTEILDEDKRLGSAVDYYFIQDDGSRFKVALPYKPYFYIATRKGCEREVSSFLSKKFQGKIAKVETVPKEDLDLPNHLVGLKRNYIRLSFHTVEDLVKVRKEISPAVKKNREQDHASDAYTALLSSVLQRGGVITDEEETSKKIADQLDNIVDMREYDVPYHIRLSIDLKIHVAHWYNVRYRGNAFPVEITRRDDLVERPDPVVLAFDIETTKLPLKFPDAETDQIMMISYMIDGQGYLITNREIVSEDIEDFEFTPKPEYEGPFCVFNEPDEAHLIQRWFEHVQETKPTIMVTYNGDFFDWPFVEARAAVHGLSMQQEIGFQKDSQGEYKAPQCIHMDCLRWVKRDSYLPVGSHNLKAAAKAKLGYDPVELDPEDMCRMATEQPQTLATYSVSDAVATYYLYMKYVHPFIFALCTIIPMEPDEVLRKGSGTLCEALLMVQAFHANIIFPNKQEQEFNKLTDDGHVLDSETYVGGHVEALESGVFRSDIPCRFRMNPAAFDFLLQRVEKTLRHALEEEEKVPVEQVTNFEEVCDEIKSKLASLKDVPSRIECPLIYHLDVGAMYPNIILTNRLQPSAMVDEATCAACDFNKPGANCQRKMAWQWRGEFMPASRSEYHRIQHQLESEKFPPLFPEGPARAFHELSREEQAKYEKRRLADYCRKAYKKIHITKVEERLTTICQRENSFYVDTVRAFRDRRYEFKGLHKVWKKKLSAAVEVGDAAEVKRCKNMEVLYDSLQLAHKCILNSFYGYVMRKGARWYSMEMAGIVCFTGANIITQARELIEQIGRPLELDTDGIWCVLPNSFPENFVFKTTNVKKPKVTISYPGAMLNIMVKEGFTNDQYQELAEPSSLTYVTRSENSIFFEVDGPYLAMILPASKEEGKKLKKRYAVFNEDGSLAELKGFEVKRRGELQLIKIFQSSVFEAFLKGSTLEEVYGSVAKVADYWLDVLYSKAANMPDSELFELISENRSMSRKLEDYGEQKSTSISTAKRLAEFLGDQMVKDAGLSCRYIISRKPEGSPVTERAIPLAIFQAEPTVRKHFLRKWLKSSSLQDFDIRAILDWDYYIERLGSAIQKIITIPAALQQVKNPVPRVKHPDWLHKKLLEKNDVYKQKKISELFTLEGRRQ
Sequence of hPolεCD (insect) (Q07864 28-1194): as above

B1: Octet template:primer 23/11 (dsDNA)
DNA 1: AATACATAAGCGCTCCAGGCAAT
DNA 2: GCCTGGAGCGC
modifications: 3' dideoxycytidine on primer
For B1, the figures for the Kd with hPolεCD (E. coli) [1], with hPolεCD (E. coli) [2] and with hPolεCD (insect) were 3260 ± 386 nM, 167 ± 24 nM and 213 ± 43 nM, respectively.

For orientation: Kd means a measure of binding affinity in units of concentration. High values mean lower affinity, low ones higher affinity.
